The series can be described thus: soluble on expression in E. coli; label from the status in PepcDB or PDB records.
Turning to “MSLAGTIAIKNGYVFDPLNEINGEKMDIFIRDGKVVKELSASEMKTSRVIDASGMTVMPGGVDSHSHVAGAKVNAGRSMRPEDHYKANLKKTPLTHSGSGYTVPSVYKQGYDYAAMGYTTVFEAAVPPLEARHTHEEMRATPLLDMGGYLVLGNNFFLMRYLRDGDMEKAAAYVAWMMKTHKTYGIKCVNPAGVENWAWGKNVSTLDETNIHFEITPREVIKGLTEVNETLGMPMPVHLHANNLGHPGCYAITKDSLKIPDGVKTKQNMAVEWAETKMDLSRDRSVYLTHLMFNSFAGTTWGDCESGVKDIADYINNKDHVVIDSGCTPFGEATVMTGDGPAIHDLYTLTGNKWSNTDVEMECGSGVLPFTYLKSNPVHSLQWAMGLECLLLIKDPWKTIMTTDSPNGGPFTKYPEVMTWIMSEAFRKQTFSECHKWANDRSELGGINRELSLYDLAILTRANPAKTIGMAHRKGSLGVGADGDVTVYNINPQQLDANNYEALLRTFRKAEYTVKGGEIVAVKGEIVSLPEKRTYYSEVHVENEREKEMLVDVKEWFRYYTLGFANYSTPEKYLANPTPIQVNSEGHHHHHH”, the “soluble on expression in E. coli” value was “not soluble”.
For “MSLAIIPGVEQKPMSSNLESRIDQGTGREPADMVLKGGRFFDLVTGELVASDIAICGDTVVGTCGDYKGRHEIDISGKIVVPGFIDTHLHIESSLVTPHEFDRCVLPYGVTTAICDPHEIANVLGAEGLQFFLDSAMETIMDIRVQLSSCVPATHLETSGADLPIEKLLPFRNHPKVIGLAEFMNFPGVIHKDPVCMAKLEAFQGQHIDGHAPLLSGAALNGYLAAGIRTEHECTSAAEALEKIRKGMHILVREGSVSKDLHALMPIITERLSPYLALCTDDRNPLDIAEQGHLDYMIRTAIASGVEPLAIYRAASISAAKAFGLRDRGLVAPGWRADLVVIDTLQNCKASMVLSGGRLVDDALFATRKPVAPVGLDSVKARPVLASHFGVPVTEGETPVMGVLPGKIITEHRRYKLPTDGNQTTVDLENDIIKVAVIERHGKNGNHANGFVQGFGLKKGAIASTVGHDSHNICVVGVSEDDMALAANRLGDIKGGFVVVEDGRVTGEIALPVAGLMSLEPYETVRDTLHTLRKAAYALGTTLEEPFLQVAFLPLPVIPHLKISDMGMVDVDRFALIEGHHHHHH”, the “soluble on expression in E. coli” value is reported as “soluble”.
Then “MSLAIQMTTKTTYQWPQSKDIYPYRPGRFDAPKHWRYNLRSFLNRGSIRRFEQFINQHPFLIDIFNTHLDYSYPVACRFLDKRFNASQRFHAVCENLLFLPEKLTALSTPLWEKPLSFGEVIPDFEMTLSMTTHQPMEGYWVLELWHKPRNELVYLLTFAKLGDALLIAVVQGPNFEGSKEMVKQLTKLCHGLRPAYLMVETMKSLTKILGYNKLLGIPQKYQNKSRFIQSKQYTVDYDAIFGESGGELKDYWELPLEMDRNLDDIPSKKRSMYRKRYAMLDDLAKVIEEKLGLEGHHHHHH”, with “not soluble”; and “MSLAKKILVTGAGGYIGRHVVSALLDAGQDVIASDLRLDGVDERATKVQANIFEPNDNLFEELGAPDVCLHMAWRDGFKHNSDNHMGDLSNHYRFLKHMLDSGLKQIAVMGTMHEVGYWEGAIDENTPCHPASMYGIAKNALREATLMLAKEYDATAQWIRAYYIVGDDAHGNSIFSKLLQAANDGKATFPFTTGKNKYDFIDVDELARQISAVVSQDAVDGVINCCTGEPMTLAERVERYIKENDLNIKLDYGAFPDRPYDSPGVWGDASKINKIMKEGHHHHHH”, with “soluble”; and “MSLAKRIKIDNASSKFRRQSQKREQKVIRCSVLIVCEGTKTEPNYFEAFAEKQQGVIVYDIEVKGLGRGTKDVVEKAIDLKNKNNYDRVWAVFDRDEFPAKDFNEAIAMGQKNSIEVAWSNEAFELWYLYHFQNVITGVSRKDYEEKISTAVNASPKYKSKKKYRYAKKDPNNYKIMTTYGSMESALRYAEAKHLEYADSRYANQNPCTTIYQLVRQLLGRDEKLNAELIARIGENEGHHHHHH”, with “soluble”.
Then “MSLALFYGRKITVAGISKRGSETALEISEKLSEKGLAVKCYSRSNLKGCNTYIGSTQNFVLSEVRKSDVLVLVMSLGGAVRIIEKASILKEEGIAVIVVDDYGRYAIPIVNGHSGSANVFARLISELIGSEYIITDAVELNGLMSVEEMSRRLYCTIANPECVLKINTALANGDPVFARNESSKRKHAFEMIKYPWKTYSRSDDAKIIITDRPGEGGEICYLVPDDISVGIGFTGKADPYNIKKRIEEVLLSLGLGYDDVNCVSSLRYNKFLSELIKDNGTEFRTFSADDLKSVDVSLLSHISEEAEEKLGIPGSAEPSALLSLGPGSRIIYPFTKFDHSMTISVASRREGHHHHHH”, with “soluble”.
Under “MSLALIVQKFGGSSVGSVERIQAVAQRVYKTVKAGNSLVVVVSAMGKTTDGLVKLANEISRNPNRREMDMLLSTGEQVTIALLSMALQELGQPAISMTGAQVGIVTEAEHTRARILHIETERVEGHIKEGKVVVVAGFQGISSNGSLEITTLGRGGSDTSAVALAAALQADFCEIYTDVPGILTTDPRIVPEAQLMGEITCNEMLELASLGAKVLHPRAVEIARNYGMPLVVKSSWTDDPGTWVTTPKPQGRSLINLELARPVDDVELDTDQAKVALLRVPDKPGVAAKLFGEISRQKVDVDLIIQSIHEGNSNDIAFTVTTPILKRAEAVAAAIAPSLRSPSHPKSDEAEVMVEQNIAKVSIAGAGMIGRPGVAAQMFATLAEAGVNIQMISTSEVKVSCVIDAQDGDRAIIALRKAFEIETPLHSQLPTPSSLSTHNSPPVRGVALDLNQARLAIRQVPDRPGMAAQLFGILSQHNISVDMIIQSQRCRIVDGVPRRDIAFTVPRMDGETAQKLLCQVAPELGWGDVVLDSAIAKVSIVGAGMVGQPGVAAKMFEALAKHQINIQMIATSEIKISCVVSQEQGVQALQVIHTAFELAGTEKFVVPAEGHHHHHH” stands “not soluble”; under “MSLANYIKDIREKVGHMPLIMVGVGAAYIKEEKVLLQERADTGGWGLPGGYMEYGESIEQTLKREFKEDAGLEIIDYKFLKNFDREFFKYPNGDQTQVLTPFYLVTKVKEGKPQFDPHETSRVDFFDFNDLPEIHFASHKRILTYLQDILEGHHHHHH”, “not soluble”; under “MSLAPAQRAFSDWQVTCNNQNFCVARNTGDHNGLVMTLSRSAGAHTDAVLRIERGGLKSPDASEGEIAPRLLLDGEPLALSGDKWRISPWLLVTDDTATITAFLQMIQEGKAITLRDGNQTISLSDLKAALLFIDAQQKRVGSETAWIKKGDEPPLSVPPAPALKEVVVVNPTPTPLSLEERNDLLDYGNWRMNGLRCSLDPLRREVNVTALTDDKALMMISCEAGAYNTIDLAWIVSRKKPLASRPVRLRLPFNNGQETNELELMNATFDEKSRELVTLAKGRGLSDCGIQARWRFDGQRFRLVRYAAEPTCDNWHGPDAWPTLWITREGHHHHHH”, “soluble”.
Turning to “MSLAPSNSLEICGDGVKNPTTFTRAQLEDMPQYQQVYSSINTWPSKKWYVGKGVHLSELLSLVGIKDDARLLKFTSQDGYTMTLTVKELLVDKRYYFPHFNDNKIGDGEGNIAGSSQGAELVEPIIALISVEGSNNPNYMNDLNTLVLMMGQRAVTEQTGNAFVKYLNKIEVLTSEVPKWDSPQANPGSGEVSAGTMIALSTARMDDDKIYYTTDGSTPNLNSPIYNWIAKRWWSARADILGTYNHPIGPINENTTIKAITIGPGKENSDVATFTYTVPVSKPASETSIVAPNEATNYPDQALEKPLQSEPKATLTDVQNHWAQKNINELIASGIAGGYPDSSFRPDNTITRAEFATMLVKAFNLQNQGGKVFADSEQHWAKEYISRATASGVVSGYDAENFGPDKLITREQMAVMISKAAKLVLKAEAMHFADSAGISEWAKEAVLAANQSGIVKGYPDNTIRPQGSATRAEAVTVIVNALTLKEGHHHHHH”, the “soluble on expression in E. coli” value is “soluble”.
Then “MSLAQFVDWDLAAATAGTLGKTGPRVSYVEATAVVGDLRQLTDEAAEHVADFTGLRSQVSHPPVQVVDRRDWAATNVAGLREMIGPLVGRLAGDKQPSVLTEAIGSRITGVQAGTVLAYLSGRVLGQYEVFSGEPGQLLLIAPNIVEVERKLAADPRDFRMWVCLHEVTHRTQFTAVPWLRAYFLGEVQAFVDASSSGGEPLVERLRRGITVLADAVREPAGRTSVLDIVQTPAQKAVLDRLTALMTLLEGHAEFVMDGVGPQVIPSVERIRASFNRRRESGNPLEKALRRLLGVEVKLRQYAEGRSFVHGVVERVGMEGFNRVFASPLTLPRLAELSDPDAWVARVHGPAGPLPAGDEGHHHHHH”, with “soluble”.
